In US20250313644A1 (FUTUREGEN BIOPHARMACEUTICAL BEIJING, published 2025):

Assays:
[1] = biological target: T1, LIGHT (UniProt O43557 74-240, limits assumed); experiment: ELISA, coated LIGHT
Method: (§1) In this experiment, ELISA was used to assess the binding ability of monoclonal antibodies to TL1A homologous molecules. Representative members of the TNF ligand superfamily, TNFα, LT-α, LIGHT and FASL, were selected for binding testing. 1 μg/mL of TNFα, LT-α, LIGHT or FASL was coated in a microplate with a carbonate buffer solution at pH=9.6, 100 μL per well, and the microplate was incubated at 4° C. overnight. The microplate was then washed 5 times with PBST, blocked with 300 μL/well of PBS containing 1% BSA, and was incubated at room temperature for 1 hour. After washing 5 times with PBST, about 100 μL each of the M701 monoclonal antibodies and the control antibodies were added to each well, and were incubated at room temperature for 1 hour. After washing 5 times with PBST, 100 μL of HRP-anti-human Fc (Sino Biological) was added to each well, and was incubated at room temperature for 1 hour. After washing 5 times with PBST, 100 μL of colorimetric substrate TMB was added to each well, and color was developed at room temperature for 10 minutes, followed by addition of 1M sulfuric acid to terminate the reaction. OD450 nm was recorded on a microplate reader.

[2] = biological target: T2, TNFα (UniProt P01375 77-233); experiment: ELISA, coated TNF-α, Ab 0.391 nM
Method: as §1

[3] = biological target: T2, TNFα; experiment: ELISA, coated TNF-α, Ab 25 nM
Method: as §1

[4] = biological target: T2, TNFα; experiment: ELISA, coated TNF-α, Ab 100 nM
Method: as §1

[5] = biological target: T1, LIGHT; experiment: ELISA, coated LIGHT, Ab 1.563 nM
Method: as §1

[6] = biological target: T3, FASL (UniProt P48023 134-281, limits assumed); experiment: ELISA, coated FASL, Ab 0.000 nM (blank)
T3 sequence (looked up): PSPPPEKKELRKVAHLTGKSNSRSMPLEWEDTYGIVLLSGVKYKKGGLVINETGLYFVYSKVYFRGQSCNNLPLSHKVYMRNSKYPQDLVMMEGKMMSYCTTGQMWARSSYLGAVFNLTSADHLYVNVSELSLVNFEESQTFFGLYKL
Method: as §1

[7] = biological target: T3, FASL; experiment: ELISA, coated FASL, Ab 25 nM
Method: as §1

[8] = biological target: T4, LT-α (UniProt P01374 35-205); experiment: ELISA, coated LT-α
T4 sequence (looked up): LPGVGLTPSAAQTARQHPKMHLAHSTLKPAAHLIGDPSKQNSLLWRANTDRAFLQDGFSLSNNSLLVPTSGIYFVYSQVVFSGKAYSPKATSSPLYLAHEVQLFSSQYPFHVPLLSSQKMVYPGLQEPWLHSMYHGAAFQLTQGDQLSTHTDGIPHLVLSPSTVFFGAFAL
Method: as §1

[9] = biological target: T1, LIGHT; experiment: ELISA, coated LIGHT, Ab 25 nM
Method: as §1

[10] = biological target: T5, human TL1A (HuTL1A) (human, UniProt O95150 57-251, limits assumed, biotin-labelled in some assays (site not stated)); experiment: cell-based or functional assay
T5 sequence: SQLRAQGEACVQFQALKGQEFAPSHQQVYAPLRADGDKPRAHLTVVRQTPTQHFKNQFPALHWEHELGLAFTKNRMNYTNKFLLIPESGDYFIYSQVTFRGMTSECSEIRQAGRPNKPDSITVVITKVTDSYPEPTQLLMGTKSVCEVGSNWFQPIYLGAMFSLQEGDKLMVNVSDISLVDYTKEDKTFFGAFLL

[11] = biological target: T3, FASL; experiment: ELISA, coated FASL, Ab 100 nM
Method: as §1

[12] = biological target: T4, LT-α; experiment: ELISA, coated LT-α, Ab 1.563 nM
Method: as §1

[13] = biological target: T4, LT-α; experiment: ELISA, coated LT-α, Ab 6.25 nM
Method: as §1

[14] = biological target: T2, TNFα; experiment: ELISA, coated TNFα
Method: as §1

[15] = biological target: T5, human TL1A (HuTL1A); experiment: DLS, antigen and antibody mixed in equal moles
Method: 60 μM antigen and antibody was mixed in equal moles, incubated at room temperature for 30 minutes, and then the molecular size was detected using UNCLE or SEC.

[16] = biological target: T4, LT-α; experiment: ELISA, coated LT-α, Ab 0.391 nM
Method: as §1

[17] = biological target: T1, LIGHT; experiment: ELISA, coated LIGHT, Ab 0.391 nM
Method: as §1

[18] = biological target: T1, LIGHT; experiment: ELISA, coated LIGHT, Ab 6.25 nM
Method: as §1

[19] = biological target: T3, FASL; experiment: ELISA, coated FASL, Ab 0.391 nM
Method: as §1

[20] = biological target: T2, TNFα; experiment: ELISA, coated TNF-α, Ab 0.000 nM (blank)
Method: as §1

[21] = biological target: T4, LT-α; experiment: ELISA, coated LT-α, Ab 25 nM
Method: as §1

[22] = biological target: T4, LT-α; experiment: ELISA, coated LT-α, Ab 0.000 nM (blank)
Method: as §1

[23] = biological target: T2, TNFα; experiment: ELISA, coated TNF-α, Ab 6.25 nM
Method: as §1

[24] = biological target: T4, LT-α; experiment: ELISA, coated LT-α, Ab 100 nM
Method: as §1

[25] = biological target: T1, LIGHT; experiment: ELISA, coated LIGHT, Ab 100 nM
Method: as §1

[26] = biological target: T1, LIGHT; experiment: ELISA, coated LIGHT, Ab 0.000 nM (blank)
Method: as §1

[27] = biological target: T2, TNFα; experiment: ELISA, coated TNF-α, Ab 1.563 nM
Method: as §1

[28] = biological target: T5, human TL1A (HuTL1A); experiment: cell-based or functional assay; remark: listed apart in the source
[29] = biological target: T3, FASL; experiment: ELISA, coated FASL
Method: as §1

[30] = biological target: T3, FASL; experiment: ELISA, coated FASL, Ab 6.25 nM
Method: as §1

[31] = biological target: T3, FASL; experiment: ELISA, coated FASL, Ab 1.563 nM
Method: as §1

T1 sequence (O43557 74-240 limits assumed): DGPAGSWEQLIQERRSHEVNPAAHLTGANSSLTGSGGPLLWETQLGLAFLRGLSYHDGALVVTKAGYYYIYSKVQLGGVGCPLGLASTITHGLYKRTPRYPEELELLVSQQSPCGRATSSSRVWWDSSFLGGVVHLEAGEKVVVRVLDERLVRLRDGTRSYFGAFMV
T2 sequence (P01375 77-233 limits assumed): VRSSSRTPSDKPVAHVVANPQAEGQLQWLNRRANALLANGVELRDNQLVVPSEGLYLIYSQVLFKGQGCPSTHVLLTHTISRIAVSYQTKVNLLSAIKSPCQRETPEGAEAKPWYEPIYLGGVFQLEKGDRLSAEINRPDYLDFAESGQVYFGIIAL

B1: M701-4019 (antibody, human IgG1, kappa, L234A L235A, V domains shown)
VH: ELQLQESGPGLVKPSETLSLTCAVSGVSFTDYHWAWIRQPPGKGLEWIGDINHRGHTNYNPSLKSRVTVSIDTSKNQFSLKLSSVTAADTAVYYCARDYPNFIYDYWGQGTLVTVSS
VL: DIQLTQSPGTLSLSPGERATLSCRASQSVSNYLAWYQQKPGQAPRLLIYGASRRATGIPARFSGSGSGTDFTLTISSLEPEDFAVYYCQQYAASPLTFGQGTKVEIKR
notes: Fc-engineered IgG1
- binding result [1]: no binding (tested: 100 nM)
- OD450 nm [2]: 0.0567
- OD450 nm [3]: 0.066
- OD450 nm [4]: 0.105
- OD450 nm [5]: 0.0539
- OD450 nm [6]: 0.0602
- OD450 nm [7]: 0.0612
- binding result [8]: no binding (tested: 100 nM)
- OD450 nm [9]: 0.061
- IC50 (read off the curve); SEAP reporter in HEK293T/DR3-NFκB cells with soluble TL1A, OD655 [10]: ~1 nM
- OD450 nm [11]: 0.0886
- OD450 nm [12]: 0.0602
- OD450 nm [13]: 0.0566
- binding result [14]: no binding (tested: 100 nM)
- Ave Z-dia (nm) of the antigen-antibody complex [15]: 18.5 nm
- OD450 nm [16]: 0.0572
- OD450 nm [17]: 0.0528
- OD450 nm [18]: 0.0572
- OD450 nm [19]: 0.0506
- OD450 nm [20]: 0.0748
- OD450 nm [21]: 0.0627
- OD450 nm [22]: 0.0648
- OD450 nm [23]: 0.0591
- OD450 nm [24]: 0.067
- OD450 nm [25]: 0.0942
- OD450 nm [26]: 0.0563
- OD450 nm [27]: 0.057
- IC50 (read off the curve); IFN-γ of human T cells with IL-12, IL-18 and exogenous human TL1A [28]: ~0.2 nM
- binding result [29]: no binding (tested: 100 nM)
- OD450 nm [30]: 0.0529
- OD450 nm [31]: 0.0514
